Results: patent publication US12466853B2, “Selective targeting of apoptosis proteins by structurally-stabilized and/or cysteine-reactive NOXA peptides” (priority 2017, dated 2025)

Columns and labels:
[1] = target: T1, native BFL-1 (Homo sapiens, UniProt Q16548); assay: BFL-1 targeting in U937 lysates (streptavidin pulldown, BFL-1 western); type: binding; conditions: biotinylated SAHB
T1 construct: endogenous in cells; host or cells: A375P melanoma cells (A10); U937 AML cells (A12), lysates
T1 sequence (Q16548 1-175): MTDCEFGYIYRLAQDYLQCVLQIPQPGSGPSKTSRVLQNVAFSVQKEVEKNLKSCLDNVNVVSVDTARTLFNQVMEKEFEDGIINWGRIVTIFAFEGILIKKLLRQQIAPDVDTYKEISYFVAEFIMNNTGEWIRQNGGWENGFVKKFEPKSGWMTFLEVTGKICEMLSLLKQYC
Description: (§1) We confirmed that both of our lead constructs could covalently crosslink to full-length BFL-1 protein, which bears a C-terminal helix that could potentially compete with D-NA-NOXA SAHBs for interaction at the canonical BH3-binding pocket in cancer cells. We generated recombinant full-length BFL-1 and expressed HA-tagged full-length BFL-1 in 293T cells, and then conducted crosslinking analyses in vitro and in treated cells, respectively.
Cultured A375P and U937 cells were trypsinized or harvested, respectively, washed with PBS, and lysed by incubating with 1% CHAPS lysis buffer (1% CHAPS, 150 mM NaCl, 50 mM Tris pH 7.4, 100 μM DTT). The protein concentrations of the soluble fraction were measured using a BCA kit according to the manufacturer's instructions (Thermo Scientific). Lysate samples (1 mg) were incubated with vehicle or C-terminally biotinylated NOXA SAHBs (30 μM) overnight in 1% CHAPS lysis buffer at 4° C. Biotin capture was accomplished by incubating the mixture with high-capacity SA agarose (Thermo Scientific) for 2 hours at 4° C., followed by centrifugation and washing the pelleted beads three times with lysis buffer (1 mL). Bead-bound proteins were eluted by boiling in 10% SDS containing 10 mg/mL biotin for 10 minutes and then subjected to electrophoresis and western blotting using BFL-1 (Abcam, #125259) and MCL-1 (Rockland #600-401-394S) antibodies.

[2] = test system: MV4;11 cells; assay: Cell viability (CellTiter-Glo) and CalcuSyn synergy, MV4;11; conditions: MV4;11 cells (not dependent on BFL-1, dependent on MCL-1)
Description: (§2) Cell viability and caspase-3/7 activation was measured using CellTiter-Glo and Caspase-Glo 3/7 chemiluminescence reagents (Promega), respectively, and luminescence was detected by a Spectramax M5 microplate reader. Synergy of drug interactions was calculated using the CalcuSyn software (Biosoft).

[3] = target: T2, His-BFL-1ΔC (Homo sapiens, UniProt Q16548); assay: Streptavidin pulldown from recombinant protein mixture, BFL-1; type: binding; conditions: equimolar mixture of recombinant MCL-1, BCL-XL, BFL-1 and biotinylated SAHB, silver stain
T2 construct: Recombinant anti-apoptotic BFL-1ΔC (aa 1-151) and its cysteine to serine mutants were cloned into PET17b; made in house; host or cells: Escherichia coli LOBSTR BL21(DE3)
T2 sequence (Q16548 1-151): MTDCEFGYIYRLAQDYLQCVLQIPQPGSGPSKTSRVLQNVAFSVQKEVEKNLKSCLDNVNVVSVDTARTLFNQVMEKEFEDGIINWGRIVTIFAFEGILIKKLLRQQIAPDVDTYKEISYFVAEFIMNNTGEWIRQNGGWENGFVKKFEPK
Description: WT His-BFL-1ΔC, BCL-XLΔC (tagless), and GST-MCL-1ΔNΔC (1 μM each) were combined and incubated with 3 mM DTT in PBS for thirty minutes at room temperature. Mixtures were treated with vehicle or the indicated C-terminally biotinylated NOXA SAHB (1 μM) for four hours and were then added to 30 μL PBS-washed high-capacity streptavidin (SA) agarose beads (Thermo Fisher Pierce) and incubated with rotation at room temperature for two hours. The beads were then washed three times with NP-40 lysis buffer (1% NP-40, 50 mM Tris pH 8, 100 mM NaCl, 2.5 mM MgCl2) and three times with PBS. To elute bound protein, beads were boiled for ten minutes with 10% SDS containing 10 mg/mL biotin. After elution, samples were boiled with 3×LDS and 2M DTT for twenty minutes. Gel electrophoresis using a 12% Bis-Tris gel was conducted on inputs (2%) and eluates (5 μL) and gels were developed using the Pierce silver staining kit (Thermo Fisher).

[4] = test system: KG-1 cells; assay: Cell viability (CellTiter-Glo) and CalcuSyn synergy, KG-1; type: cell-based, human; conditions: KG-1 AML cells
Description: U937, MV4;11, OCI-AML-3, Jurkat, and KG-1 cells cultured in RPMI containing 10% FBS and penicillin-streptomycin were plated in 96-well plates (5×10^3 cells per well) and, after overnight incubation, treated with the indicated concentrations of D-NA-NOXA SAHB and/or AZD0156, Ku-60019, Ku-55933, AZD7762, olaparib, or S63845 (all from Selleck Chemicals) in RPMI supplemented with 5% FBS for the indicated durations. Cell viability and caspase-3/7 activation was measured using CellTiter-Glo and Caspase-Glo 3/7 chemiluminescence reagents (Promega), respectively, and luminescence was detected by a Spectramax M5 microplate reader. Synergy of drug interactions was calculated using the CalcuSyn software (Biosoft).

[5] = test system: U937 cells; assay: Cell viability (CellTiter-Glo) and CalcuSyn synergy, U937; conditions: U937 cells (BFL-1-dependent)
Description: as §2

[6] = target: T3, full-length BFL-1 (Homo sapiens, UniProt Q16548); assay: Covalent crosslinking to full-length BFL-1, recombinant and HA-tagged expressed in 293T cells; type: binding; conditions: recombinant and expressed in 293T cells; somewhat reduced efficiency vs C-terminally truncated species
T3 construct: Recombinant full-length BFL-1 (aa-175) containing an N-terminal hexahistidine tag; made in house
T3 sequence (Q16548 1-175): T1 sequence (Q16548 1-175)
Description: as §1
Recombinant full-length BFL-1 (aa-175) containing an N-terminal hexahistidine tag was cloned into the PTYB1 vector (New England Biolabs) and purified as above except for the addition of a chitin affinity chromatography and DTT elution step. Protein purity and identity was confirmed by Coomassie staining and western blot analysis using a mouse monoclonal anti-His6 tag antibody (Abcam).
His-BFL-1ΔC C4S/C19S protein (5 μM) was pre-treated with 10 mM DTT in 50 mM Tris (pH 8.0) and 100 mM NaCl for 30 min at room temperature (final volume […]) and then combined with a 10:1 molar ratio of cysteine-reactive NOXA SAHB for an additional 1-hr incubation at room temperature. The samples were then boiled in 3× loading buffer with DTT and electrophoresed on 12% Bis-Tris gel, then subjected to Coomassie staining.

[7] = target: T4, FLAG-MCL-1 / tBID (Homo sapiens, UniProt Q07820); assay: MCL-1/tBID complex disruption in 293T lysates; type: binding; conditions: FLAG immunoprecipitation
T4 construct: expressed in transfected cells; host or cells: 293T (lysate)
T4 sequence (Q07820 whole entry): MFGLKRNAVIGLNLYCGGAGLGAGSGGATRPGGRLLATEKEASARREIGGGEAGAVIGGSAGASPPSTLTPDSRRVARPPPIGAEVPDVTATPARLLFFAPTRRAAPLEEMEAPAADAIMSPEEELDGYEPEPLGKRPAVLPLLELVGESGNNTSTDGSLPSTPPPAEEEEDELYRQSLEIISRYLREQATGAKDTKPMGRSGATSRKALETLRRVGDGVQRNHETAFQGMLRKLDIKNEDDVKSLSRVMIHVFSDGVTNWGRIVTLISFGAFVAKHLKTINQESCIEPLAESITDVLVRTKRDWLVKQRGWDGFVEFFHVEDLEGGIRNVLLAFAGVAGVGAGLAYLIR
Description: To evaluate the capacity of biotinylated SAHBs to compete with tBID for interactions with BFL-1 and MCL-1, 293T cells were transfected with either HA-BFL-1ΔC C4S/C19S or FLAG-MCL-1 in the p3XFLAG-CMV-10 vector (Sigma) as above. After 24 hr, cells were trypsinized, washed with PBS, lysed in 1% CHAPS buffer, and the supernatant collected for protein concentration determination by BCA kit. Lysate samples (0.5 mg) were incubated with 0.25 μM recombinant tBID (R&D Systems) and 5 μM biotinylated NOXA SAHBs for 6 h at RT. The mixtures were then subjected to HA or FLAG immunoprecipitation, followed by western analysis using 1:1000 dilutions of HA (Sigma Aldrich, #12CA5), FLAG (Sigma-Aldrich, F7425), and BID (Santa Cruz sc-11423) antibodies.

In the case of JAT8LREFGDXLNFRQ [D-NA-NOXA-15 R31E], the “targeting of native BFL-1” value [1] is reported as “more effective binder of native BFL-1 protein between the two constructs”, the “cytotoxicity, single agent” value [2] is reported as “essentially insensitive” and the “BFL-1 binding / pull down” value [3] is reported as “striking competitive advantage for BFL-1 targeting over its acetylated counterpart”. The “cytotoxicity, single agent” value [4] was “dose-responsive cytotoxicity”, the “cytotoxicity, single agent” value ([5]; listed as D-NA-NOXA SAHB-15 R31E) was “responsive” and the “cytotoxicity, single agent” value ([5]; listed as NOXA-15 R31E SAHB) was “selective cytotoxicity”. The “covalent crosslinking to full-length BFL-1” value [6] was “covalent crosslinking to recombinant and expressed full-length BFL-1” and the “dissociation of FLAG-MCL-1/tBID interaction” value [7] was “neither D-NA- nor Ac-NOXA15 R31E is able to dissociate the interaction”.
